Series [1] concerns HeLa Kyoto. As to the kind of experiment: thermal stability score vs G1/S (z-score of summed log2 fold changes over temperatures); higher = more thermally stable than in G1/S.
Series [2] deals with HeLa Kyoto. As to the kind of experiment: melting temperature (median over replicates), in situ; higher = more thermally stable.
The subject of series [3] is HeLa Kyoto. As to the kind of experiment: solubility in G1/S (NP-40 vs SDS abundance) (log2 ratio); higher = more soluble. The following applies: cell cycle stage: G1/S.
For series [4], the system named is HeLa Kyoto. As to the kind of experiment: solubility change mitosis vs G1/S (difference of NP-40 vs SDS log2 ratios) (log2 ratio difference); higher = more soluble in mitosis.
[5] abbreviates: cell cycle stage: early G1 (4.5 h after nocodazole release).

Results on six sequences are retold here after the supplement of paper PMC5998384.
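For melting temperature (median over replicates), in situ in this document: HeLa Kyoto cells synchronized by double thymidine or nocodazole block, proteins quantified by TMT10plex mass spectrometry, three independent biological replicates.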
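For solubility change mitosis vs G1/S (difference of NP-40 vs SDS log2 ratios) in this document: synchronized HeLa Kyoto cells (double thymidine block for G1/S, nocodazole release for mitosis), protein amounts in NP-40 versus SDS lysates quantified by mass spectrometry, three biological replicates.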
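For solubility in G1/S (NP-40 vs SDS abundance) in this document: HeLa Kyoto cells arrested at G1/S by double thymidine block, proteins quantified by TMT10plex mass spectrometry in mild NP-40 versus SDS extracts, three biological replicates.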
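For thermal stability score vs G1/S (z-score of summed log2 fold changes over temperatures) in this document: synchronized HeLa Kyoto cells, proteins quantified by TMT10plex mass spectrometry, three biological replicates, mitosis taken 0.5 h after nocodazole release, G1/S directly after double thymidine block.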

For the sequence “MAPMGIRLSPLGVAVFCLLGLGVLYHLYSGFLAGRFSLFGLGGEPGGGAAGPAAAADGGTVDLREMLAVSVLAAVRGGDEVRRVRESNVLHEKSKGKTREGAEDKMTSGDVLSNRKMFYLLKTAFPSVQINTEEHVDAADQEVILWDHKIPEDILKEVTTPKEVPAESVTVWIDPLDATQEYTEDLRKYVTTMVCVAVNGKPMLGVIHKPFSEYTAWAMVDGGSNVKARSSYNEKTPRIVVSRSHSGMVKQVALQTFGNQTTIIPAGGAGYKVLALLDVPDKSQEKADLYIHVTYIKKWDICAGNAILKALGGHMTTLSGEEISYTGSDGIEGGLLASIRMNHQALVRKLPDLEKTGHK [IMPAD1]”, the thermal stability score with HeLa Kyoto [1] (setting [5]) is 0.124; in the series on HeLa Kyoto [1] (cell cycle stage: mitosis) it was -1.11. The melting temperature is 59.1 °C in the series with HeLa Kyoto [2] (cell cycle stage: G1/S) and 58.9 °C in the series with HeLa Kyoto [2] (cell cycle stage: mitosis). In the series on HeLa Kyoto [3], the “solubility in G1/S (log2)” value stood at 0.145. Moreover, the “solubility change mitosis (log2)” value in the series with HeLa Kyoto [4] was -0.132.
Consider “MVSRPEPEGEAMDAELAVAPPGCSHLGSFKVDNWKQNLRAIYQCFVWSGTAEARKRKAKSCICHVCGVHLNRLHSCLYCVFFGCFTKKHIHEHAKAKRHNLAIDLMYGGIYCFLCQDYIYDKDMEIIAKEEQRKAWKMQGVGEKFSTWEPTKRELELLKHNPKRRKITSNCTIGLRGLINLGNTCFMNCIVQALTHTPLLRDFFLSDRHRCEMQSPSSCLVCEMSSLFQEFYSGHRSPHIPYKLLHLVWTHARHLAGYEQQDAHEFLIAALDVLHRHCKGDDNGKKANNPNHCNCIIDQIFTGGLQSDVTCQVCHGVSTTIDPFWDISLDLPGSSTPFWPLSPGSEGNVVNGESHVSGTTTLTDCLRRFTRPEHLGSSAKIKCSGCHSYQESTKQLTMKKLPIVACFHLKRFEHSAKLRRKITTYVSFPLELDMTPFMASSKESRMNGQYQQPTDSLNNDNKYSLFAVVNHQGTLESGHYTSFIRQHKDQWFKCDDAIITKASIKDVLDSEGYLLFYHKQFLEYE [USP22]”, for which the thermal stability score in the series on HeLa Kyoto [1] (setting [5]) turned out to be 0.773; with HeLa Kyoto [1] (cell cycle stage: mitosis), 1.56. For the same sequence, the melting temperature with HeLa Kyoto [2] (cell cycle stage: G1/S) was found to be 48.1 °C; with HeLa Kyoto [2] (cell cycle stage: mitosis) it was 49.6 °C. For the same sequence, in the series on HeLa Kyoto [3], the “solubility in G1/S (log2)” value was -0.542. In addition, the “solubility change mitosis (log2)” value with HeLa Kyoto [4] is -0.0588.
Regarding “MAAAYLDPNLNHTPNSSTKTHLGTGMERSPGAMERVLKVFHYFESNSEPTTWASIIRHGDATDVRGIIQKIVDSHKVKHVACYGFRLSHLRSEEVHWLHVDMGVSSVREKYELAHPPEEWKYELRIRYLPKGFLNQFTEDKPTLNFFYQQVKSDYMLEIADQVDQEIALKLGCLEIRRSYWEMRGNALEKKSNYEVLEKDVGLKRFFPKSLLDSVKAKTLRKLIQQTFRQFANLNREESILKFFEILSPVYRFDKECFKCALGSSWIISVELAIGPEEGISYLTDKGCNPTHLADFTQVQTIQYSNSEDKDRKGMLQLKIAGAPEPLTVTAPSLTIAENMADLIDGYCRLVNGTSQSFIIRPQKEGERALPSIPKLANSEKQGMRTHAVSVSETDDYAEIIDEEDTYTMPSTRDYEIQRERIELGRCIGEGQFGDVHQGIYMSPENPALAVAIKTCKNCTSDSVREKFLQEALTMRQFDHPHIVKLIGVITENPVWIIMELCTLGELRSFLQVRKYSLDLASLILYAYQLSTALAYLESKRFVHRDIAARNVLVSSNDCVKLGDFGLSRYMEDSTYYKASKGKLPIKWMAPESINFRRFTSASDVWMFGVCMWEILMHGVKPFQGVKNNDVIGRIENGERLPMPPNCPPTLYSLMTKCWAYDPSRRPRFTELKAQLSTILEEEKAQQEERMRMESRRQATVSWDSGGSDEAPPKPSRPGYPSPRSSEGFYPSPQHMVQTNHYQVSGYPGSHGITAMAGSIYPGQASLLDQTDSWNHRPQEIAMWQPNVEDSTVLDLRGIGQVLPTHLMEERLIRQQQEMEEDQRWLEKEERFLKPDVRLSRGSIDREDGSLQGPIGNQHIYQPVGKPDPAAPPKKPPRPGAPGHLGSLASLSSPADSYNEGVKLQPQEISPPPTANLDRSNDKVYENVTGLVKAVIEMSSKIQPAPPEEYVPMVKEVGLALRTLLATVDETIPLLPASTHREIEMAQKLLNSDLGELINKMKLAQQYVMTSLQQEYKKQMLTAAHALAVDAKNLLDVIDQARLKMLGQTRPH [PTK2]”, the values for the thermal stability score in the series on HeLa Kyoto [1] (setting [5]) and with HeLa Kyoto [1] (cell cycle stage: mitosis) were 0.562 and 0.0674, respectively. Moreover, the melting temperature in the series with HeLa Kyoto [2] (cell cycle stage: G1/S) is 53 °C; in the series with HeLa Kyoto [2] (cell cycle stage: mitosis) it was 53.2 °C. Also, the “solubility in G1/S (log2)” value in the series with HeLa Kyoto [3] was -0.0233. Besides, in the series on HeLa Kyoto [4], the “solubility change mitosis (log2)” value is -0.0593.
“MFHLRTCAAKLRPLTASQTVKTFSQNRPAAARTFQQIRCYSAPVAAEPFLSGTSSNYVEEMYCAWLENPKSVHKSWDIFFRNTNAGAPPGTAYQSPLPLSRGSLAAVAHAQSLVEAQPNVDKLVEDHLAVQSLIRAYQIRGHHVAQLDPLGILDADLDSSVPADIISSTDKLGFYGLDESDLDKVFHLPTTTFIGGQESALPLREIIRRLEMAYCQHIGVEFMFINDLEQCQWIRQKFETPGIMQFTNEEKRTLLARLVRSTRFEEFLQRKWSSEKRFGLEGCEVLIPALKTIIDKSSENGVDYVIMGMPHRGRLNVLANVIRKELEQIFCQFDSKLEAADEGSGDVKYHLGMYHRRINRVTDRNITLSLVANPSHLEAADPVVMGKTKAEQFYCGDTEGKKVMSILLHGDAAFAGQGIVYETFHLSDLPSYTTHGTVHVVVNNQIGFTTDPRMARSSPYPTDVARVVNAPIFHVNSDDPEAVMYVCKVAAEWRSTFHKDVVVDLVCYRRNGHNEMDEPMFTQPLMYKQIRKQKPVLQKYAELLVSQGVVNQPEYEEEISKYDKICEEAFARSKDEKILHIKHWLDSPWPGFFTLDGQPRSMSCPSTGLTEDILTHIGNVASSVPVENFTIHGGLSRILKTRGEMVKNRTVDWALAEYMAFGSLLKEGIHIRLSGQDVERGTFSHRHHVLHDQNVDKRTCIPMNHLWPNQAPYTVCNSSLSEYGVLGFELGFAMASPNALVLWEAQFGDFHNTAQCIIDQFICPGQAKWVRQNGIVLLLPHGMEGMGPEHSSARPERFLQMCNDDPDVLPDLKEANFDINQLYDCNWVVVNCSTPGNFFHVLRRQILLPFRKPLIIFTPKSLLRHPEARSSFDEMLPGTHFQRVIPEDGPAAQNPENVKRLLFCTGKVYYDLTRERKARDMVGQVAITRIEQLSPFPFDLLLKEVQKYPNAELAWCQEEHKNQGYYDYVKPRLRTTISRAKPVWYAGRDPAAAPATGNKKTHLTELQRLLDTAFDLDVFKNFS [OGDH]”: the thermal stability score in the series on HeLa Kyoto [1] (setting [5]) is -0.752; in the series with HeLa Kyoto [1] (cell cycle stage: mitosis), -1.63. The melting temperature in the series on HeLa Kyoto [2] (cell cycle stage: G1/S) was 52 °C; in the series with HeLa Kyoto [2] (cell cycle stage: mitosis), 51.7 °C. In the series with HeLa Kyoto [3], the “solubility in G1/S (log2)” value amounted to 0.0621. In the series on HeLa Kyoto [4], the “solubility change mitosis (log2)” value is -0.178.
On to “MPVWGGGNKCGACGRTVYHAEEVQCDGRSFHRCCFLCMVCRKNLDSTTVAIHDEEIYCKSCYGKKYGPKGYGYGQGAGTLNMDRGERLGIKPESVQPHRPTTNPNTSKFAQKYGGAEKCSRCGDSVYAAEKIIGAGKPWHKNCFRCAKCGKSLESTTLTEKEGEIYCKGCYAKNFGPKGFGYGQGAGALVHAQ [CSRP2]”, for which the thermal stability score in the series with HeLa Kyoto [1] (setting [5]) was 1.39; in the series with HeLa Kyoto [1] (cell cycle stage: mitosis), -3.46. In addition, the melting temperature in the series with HeLa Kyoto [2] (cell cycle stage: G1/S) is 59.4 °C; in the series with HeLa Kyoto [2] (cell cycle stage: mitosis) it was 54.6 °C. In the series with HeLa Kyoto [3], the “solubility in G1/S (log2)” value was -0.179. In the series on HeLa Kyoto [4], the “solubility change mitosis (log2)” value is -0.0558.
For the sequence “MIAAPEIPTDFNLLQESETHFSSDTDFEDIEGKNQKQGKGKTCKKGKKGPAEKGKGGNGGGKPPSGPNRMNGHHQQNGVENMMLFEVVKMGKSAMQSVVDDWIESYKHDRDIALLDLINFFIQCSGCKGVVTAEMFRHMQNSEIIRKMTEEFDEDSGDYPLTMAGPQWKKFKSSFCEFIGVLVRQCQYSIIYDEYMMDTVISLLTGLSDSQVRAFRHTSTLAAMKLMTALVNVALNLSINMDNTQRQYEAERNKMIGKRANERLELLLQKRKELQENQDEIENMMNAIFKGVFVHRYRDAIAEIRAICIEEIGIWMKMYSDAFLNDSYLKYVGWTMHDKQGEVRLKCLTALQGLYYNKELNSKLELFTSRFKDRIVSMTLDKEYDVAVQAIKLLTLVLQSSEEVLTAEDCENVYHLVYSAHRPVAVAAGEFLYKKLFSRRDPEEDGMMKRRGRQGPNANLVKTLVFFFLESELHEHAAYLVDSMWDCATELLKDWECMNSLLLEEPLSGEEALTDRQESALIEIMLCTIRQAAECHPPVGRGTGKRVLTAKEKKTQLDDRTKITELFAVALPQLLAKYSVDAEKVTNLLQLPQYFDLEIYTTGRLEKHLDALLRQIRNIVEKHTDTDVLEACSKTYHALCNEEFTIFNRVDISRSQLIDELADKFNRLLEDFLQEGEEPDEDDAYQVLSTLKRITAFHNAHDLSKWDLFACNYKLLKTGIENGDMPEQIVIHALQCTHYVILWQLAKITESSSTKEDLLRLKKQMRVFCQICQHYLTNVNTTVKEQAFTILCDILMIFSHQIMSGGRDMLEPLVYTPDSSLQSELLSFILDHVFIEQDDDNNSADGQQEDEASKIEALHKRRNLLAAFCKLIVYTVVEMNTAADIFKQYMKYYNDYGDIIKETMSKTRQIDKIQCAKTLILSLQQLFNEMIQENGYNFDRSSSTFSGIKELARRFALTFGLDQLKTREAIAMLHKDGIEFAFKEPNPQGESHPPLNLAFLDILSEFSSKLLRQDKRTVYVYLEKFMTFQMSLRREDVWLPLMSYRNSLLAGGDDDTMSVISGISSRGSTVRSKKSKPSTGKRKVVEGMQLSLTEESSSSDSMWLSREQTLHTPVMMQTPQLTSTIMREPKRLRPEDSFMSVYPMQTEHHQTPLDYNRRGTSLMEDDEEPIVEDVMMSSEGRIEDLNEGMDFDTMDIDLPPSKNRRERTELKPDFFDPASIMDESVLGVSMF [STAG2]”, the thermal stability score in the series on HeLa Kyoto [1] (setting [5]) is -0.506; in the series on HeLa Kyoto [1] (cell cycle stage: mitosis) it was -0.478. Further, the values for the melting temperature in the series on HeLa Kyoto [2] (cell cycle stage: G1/S) and in the series with HeLa Kyoto [2] (cell cycle stage: mitosis) were 52.9 °C and 51.6 °C, respectively. Besides, the “solubility in G1/S (log2)” value in the series on HeLa Kyoto [3] is -0.185. Moreover, the “solubility change mitosis (log2)” value with HeLa Kyoto [4] was -0.0337.
